Results from patent publication US20210079083A1 (INSTITUTE FOR BASIC SCIENCE, published 2021).
Numbering of substitutions follows the chain as printed.

T1: Human Angiopoietin-2 full-length (hAng2) (human, UniProt O15123 19-496)
T1 construct: The cell assays used full-length hAng2 from R&D Systems; also called human Ang2; A2
T1 sequence: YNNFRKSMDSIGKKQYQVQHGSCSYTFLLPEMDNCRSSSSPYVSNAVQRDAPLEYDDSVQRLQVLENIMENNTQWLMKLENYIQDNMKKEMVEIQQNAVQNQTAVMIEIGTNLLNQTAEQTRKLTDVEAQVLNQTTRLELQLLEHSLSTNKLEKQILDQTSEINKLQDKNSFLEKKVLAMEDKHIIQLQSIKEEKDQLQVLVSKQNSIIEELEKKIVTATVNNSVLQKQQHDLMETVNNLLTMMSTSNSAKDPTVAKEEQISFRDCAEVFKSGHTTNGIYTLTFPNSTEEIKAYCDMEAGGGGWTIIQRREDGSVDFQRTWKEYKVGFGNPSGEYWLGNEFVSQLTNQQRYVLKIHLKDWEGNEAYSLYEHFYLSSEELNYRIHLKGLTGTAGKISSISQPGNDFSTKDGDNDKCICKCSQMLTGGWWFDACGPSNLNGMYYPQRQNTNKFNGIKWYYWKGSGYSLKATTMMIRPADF

T2: mouse Ang2 (mAng2) (mouse, UniProt O35608 19-496, limits assumed)
T2 construct: Coated on the ELISA plate; also called recombinant mAng2
T2 sequence (looked up): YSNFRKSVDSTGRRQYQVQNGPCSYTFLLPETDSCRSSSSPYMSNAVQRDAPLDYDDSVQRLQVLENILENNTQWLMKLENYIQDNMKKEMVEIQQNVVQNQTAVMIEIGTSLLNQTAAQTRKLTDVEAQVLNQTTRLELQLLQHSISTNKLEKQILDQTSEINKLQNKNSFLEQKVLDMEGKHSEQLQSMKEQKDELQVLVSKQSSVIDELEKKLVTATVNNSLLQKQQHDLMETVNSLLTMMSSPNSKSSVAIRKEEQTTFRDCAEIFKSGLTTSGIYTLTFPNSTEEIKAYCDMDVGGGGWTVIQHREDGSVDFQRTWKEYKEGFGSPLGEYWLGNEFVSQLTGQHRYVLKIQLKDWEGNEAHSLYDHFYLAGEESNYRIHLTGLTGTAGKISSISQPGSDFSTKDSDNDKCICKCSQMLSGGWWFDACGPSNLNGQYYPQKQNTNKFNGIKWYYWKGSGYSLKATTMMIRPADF

B1: mouse anti-Ang2 antibody 2C8 (antibody, V domains shown)
VH: QVQLQQSGPQLVRPGASVKISCKASGYSFTSYWMHWVKQRPGQGLEWIGMIDPSDSETRLNQKFKDKASLTVDKSSSTAYMQLSSPTSGDSAVYYCARRFYYGSDWYFDVWGAGSTVTVSS
VL: DIVMTQSHKFMSTSVGDRVSITCKASQDVGTAVAWYQQKPGQSPKLLIYWASTRHTGVPDRFTGSGSGTDFTLTISNVQSEDLADYFCQQYSSYPLTFGSGTKLEIK
B2: mouse anti-Ang2 antibody 4E2 (antibody, V domains shown)
VH: EVQLQQSGPELEKPGASVKISCKASGYSFTGYNMNWVKQSNGKSLEWIGNIDPYYGGTSYNQKFKGKATLTVDKSSSTAYMQLKSLTSEDSAVYYCVRYGNYVDYWGQGTTLTVSS
VL: DIVMTQSHKFMSTSVGDRVSITCKASQDVSTAVAWYQQKPGQSPKLLIYWASTRHTGVPDRFTGSGSGTDYTLTISSVQAEDLALYYCQQHYNTPPTFGSGTKLEIK
notes: Mouse monoclonal antibody from a hybridoma, purified on Protein G
B3: mouse anti-Ang2 antibody 2F10 (antibody, V domains shown)
VH: QVQLVESGGGLVKPGGSLKLSCAASGFTFSDYYMYWIRQTPEKRLEWVATINDGGSYTYYPDSVKGRFTISRDNAKNNLYLQMSSLKSEDTAMYYCARDWGLRPWFVYWGQGTLVTVSA
VL: B2 VL with N93T
notes: as for B2
B4: mouse anti-Ang2 antibody 4B9 (antibody, V domains shown)
VH: B3 VH with Q1E, I37V, N52S, D53V, Y57F
VL: B2 VL with N93S
notes: Mouse monoclonal antibody from a hybridoma (KCLRF-BP-00418), purified on Protein G
B5: humanized anti-Ang2 antibody 2C8H11 (antibody, V domains shown)
VH: QVQLVQSGAEVKKPGASVKVSCKASGYTFTSYWMHWVRQAPGQGLEWMGMIDPSDSETRLNQKFKDRVTMTRDTSTSTVYMELSSLRSEDTAVYYCARRFYYGSDWYFDVWGQGTLVTVSS
VL: DIQLTQSPSFLSASVGDRVTITCKASQDVGTAVAWYQQKPGKAPKLLIYWASTRHTGVPSRFSGSGSGTEFTLTISSLQPEDFATYYCQQYSSYPLTFGQGTKVEIK
notes: Full-length human IgG1
B6: humanized anti-Ang2 antibody 4B9H11 (antibody, V domains shown)
VH: QVQLVESGGGLVKPGGSLRLSCAASGFTFSDYYMYWIRQAPGKGLEWVSTISVGGSFTYYPDSVKGRFTISRDNAKNSLYLQMNSLRAEDTAVYYCARDWGLRPWFVYWGQGTLVTVSS
VL: B5 VL with L4M, F10S, G30S, E70D, Y91H, S92Y, Y94T, L96P
notes: Full-length human IgG1
B7: humanized anti-Ang2 antibody 4B9H31 (antibody, V domains shown)
VH: B6 VH with I37V, S49A
VL: B5 VL with L4M, F10S, G30S, E70D, Y91H, S92Y, Y94T, L96P
notes: Full-length human IgG1

Each binder was assayed against T1, Human Angiopoietin-2 full-length (hAng2) (assay: BLI (Octet), hAng2 fixed on AR2G sensor, antibody 3.125-50 nM in solution, 1:1 global fit).
Method: (§1) The affinity of mouse monoclonal antibody against hAng2 was measured using Octet system (ForteBio). Specifically, buffer and samples were measured in total 200 μl/well using Black 96-well plates (96 well F-type black plates, Greiner). […] After the hydration, hAng2 was diluted in 10 mM sodium acetate, pH 6.0 buffer at a concentration of 10 μg/ml, fixed on AR2G biosensor, and blocked with 1M ethanolamine. The mouse monoclonal anti-Ang2 antibodies were diluted to 50, 25, 12.5, 6.25, 3.125, and 0 nM with 1× kinetic buffer, and subjected to association for 300 seconds and dissociation for 900 seconds.

Point of comparison: B4, Kd 3.68 pM. Against it:
- B1 — 12-fold higher, 45.5 pM
- B2 — 1300-fold higher, 4740 pM
- B3 — 38-fold higher, 138 pM

Point of comparison: B3, koff 1.71e-05 s⁻¹. Against it:
- B1 — 4.8-fold lower, 3.54e-06 s⁻¹
- B2 — 7.8-fold higher, 0.000134 s⁻¹
- B4 — 34-fold lower, 5.04e-07 s⁻¹

Point of comparison: B1, kon 77800 M⁻¹ s⁻¹. Against it:
- B2 — 2.7-fold lower, 28300 M⁻¹ s⁻¹
- B3 — 1.6-fold higher, 124000 M⁻¹ s⁻¹
- B4 — 1.8-fold higher, 137000 M⁻¹ s⁻¹

What follows are binders tested against T1, Human Angiopoietin-2 full-length (hAng2) (assay: BLI (Octet), antibody fixed on AR2G sensor, hAng2 3.125-50 nM in solution, 1:1 global fit).
Method: as §1, with “of humanized anti-Ang2” for “of mouse monoclonal”, “hydration, humanized anti-Ang2 antibody” for “hydration, hAng2”, “The recombinant hAng2 was” for “The mouse monoclonal anti-Ang2 antibodies were”, “300 sec” for “300 seconds”, “900 sec.” for “900 seconds.”
The affinities of humanized 2C8 antibodies to hAng2 were in Table 15.

Point of comparison: B7, Kd 167 pM. Against it:
- B5 — within 1.5-fold, 212 pM
- B6 — 9.8-fold lower, 17.1 pM

Point of comparison: B7, koff 1.56e-05 s⁻¹. Against it:
- B5 — within 1.5-fold, 1.4e-05 s⁻¹
- B6 — 9.9-fold lower, 1.58e-06 s⁻¹

Point of comparison: B7, kon 93900 M⁻¹ s⁻¹. Against it:
- B5 — within 1.5-fold, 66000 M⁻¹ s⁻¹
- B6 — within 1.5-fold, 92900 M⁻¹ s⁻¹

What follows are binders tested against T2, mouse Ang2 (mAng2) (assay: ELISA, mAng2 coated at 20 ng per well, detection with anti-human IgG (Fab)-HRP).
Method: FIG. 8. EC₅₀ values of anti-Ang2 antibodies against mouse Ang2 by ELISA. The binding affinities of humanized anti-Ang2 antibodies for mouse Ang2 (mAng2) were measured by analyzing EC₅₀ with ELISA. The recombinant mAng2 was coated and incubated with serially diluted anti-Ang2 antibodies, 4B9H11 and 2C8H11. Next, the plate was reacted with anti-human IgG (Fab)-HRP secondary antibody. The plate was treated with TMB solution and absorbance was measured at 450 nm. EC₅₀ value was analyzed using PerkinElmer's WorkOut 2.5 program.
The affinity of humanized antibodies for mouse Ang2 (mAng2) was analyzed by ELISA. Specifically, mAng2 was diluted in 30 μl of a coating buffer (0.1 M sodium carbonate buffer) at 20 ng per well in a half 96-well plate (Corning 3690) and incubated overnight at 4° C. After washing with TBS-T solution for 3 times, the well plate was blocked with 3% skim milk at room temperature for 1 hr and then washed again. 2C8H11 and 4B9H11 were serially diluted from […] to 300 ng/ml. After loading 30 μl of the diluted ant-Ang2 antibodies into wells, the well plate was incubated at room temperature for 2 hrs. […] After developing for 5 min, the plate was treated with 1N sulfuric acid to stop the reaction, and absorbance was measured at 450 nm. Based on the measured OD value, the EC₅₀ value was analyzed using PerkinElmer's WorkOut 2.5 program.

Point of comparison: B6, EC50 105 µg/mL. Against it:
- B5 — within 1.5-fold, 97 µg/mL
